Source: US9981005B2, “Methods for increasing DISC1 in a subject with schizophrenia or bipolar disorder by an antagonist inhibiting DISC1 binding to FBXW7” (The University Court of the University of Glasgow, priority 2013, dated 2018)
Where no end group is shown, it is not given here. [ ]: non-standard residue; d: D form. pT = C[C@@H](OP(=O)(O)O)[C@H](N)C(=O)O; NMeE = CN[C@@H](CCC(=O)O)C(=O)O; pS = N[C@@H](COP(=O)(O)O)C(=O)O; NMeD = CN[C@@H](CC(=O)O)C(=O)O

Target: FBXW7 (Homo sapiens, UniProt Q969H0)
Sequence (Q969H0 whole entry): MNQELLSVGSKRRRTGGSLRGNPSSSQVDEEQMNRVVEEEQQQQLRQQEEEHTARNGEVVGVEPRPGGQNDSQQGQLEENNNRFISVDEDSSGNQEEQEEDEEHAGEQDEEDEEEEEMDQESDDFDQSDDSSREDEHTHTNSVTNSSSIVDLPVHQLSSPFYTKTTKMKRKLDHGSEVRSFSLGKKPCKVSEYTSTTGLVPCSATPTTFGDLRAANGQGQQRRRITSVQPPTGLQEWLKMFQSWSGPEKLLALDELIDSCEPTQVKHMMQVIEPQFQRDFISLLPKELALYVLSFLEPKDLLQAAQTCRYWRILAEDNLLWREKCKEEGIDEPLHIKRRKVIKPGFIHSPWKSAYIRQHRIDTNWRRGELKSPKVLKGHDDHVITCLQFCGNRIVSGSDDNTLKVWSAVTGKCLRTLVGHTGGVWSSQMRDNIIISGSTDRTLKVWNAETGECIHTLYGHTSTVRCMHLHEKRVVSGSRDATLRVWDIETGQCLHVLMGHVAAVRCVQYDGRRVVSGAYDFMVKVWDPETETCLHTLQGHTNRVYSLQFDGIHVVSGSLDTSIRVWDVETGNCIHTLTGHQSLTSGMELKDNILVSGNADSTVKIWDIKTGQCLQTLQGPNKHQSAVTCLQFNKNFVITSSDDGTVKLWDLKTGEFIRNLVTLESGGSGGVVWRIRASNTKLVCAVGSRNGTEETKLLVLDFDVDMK
Assay: Peptides immobilised on membranes screened for the ability to bind FBXW7
Type: binding
From the text: Peptides derived from DISC1 and containing the putative phospho-degron motif were immobilised on membranes and screened for the ability to bind FBXW7. […] (SEQ ID NO: 114).
The 7-mer peptide P-pT-P-P-G-pS-H (SEQ ID NO: 21) was used as the basis for further investigation. L- and D-forms of aspartic acid and glutamic acid (upper and lower case letters respectively) as well as N-methylated versions of each (designated “m”) were incorporated at positions 198 and 202.

Row | Substance | binding to FBXW7
1 | G-A-P-P-G-mE-H (GAPPG[NMeE]H) [Peptide A22] | retain or have improved binding to FBXW7
2 | G-d-P-A-G-mE-K (G[dD]PAG[NMeE]K) [Peptide A192] | retain or have improved binding to FBXW7
3 | G-d-P-P-G-mE [Peptide A5] | retain or have improved binding to FBXW7
4 | G-d-P-P-G-mE-H (G[dD]PPG[NMeE]H) [Peptide 173] | retain or have improved binding to FBXW7
5 | G-d-P-P-Q-mE-H (G[dD]PPQ[NMeE]H) [Peptide A12] | retain or have improved binding to FBXW7
6 | G-d-P-P-a-mE-k (G[dD]PP[dA][NMeE][dK]) [Peptide A196] | retain or have improved binding to FBXW7
7 | G-d-P-P-q-mE-H (G[dD]PP[dQ][NMeE]H) [Peptide A13] | retain or have improved binding to FBXW7
8 | G-d-P-a-G-mE-k (G[dD]P[dA]G[NMeE][dK]) [Peptide A193] | retain or have improved binding to FBXW7
9 | G-d-P-p-a-mE-H (G[dD]P[dP][dA][NMeE]H) [Peptide A170] | retain or have improved binding to FBXW7
10 | G-d-P-p-a-mE-h (G[dD]P[dP][dA][NMeE][dH]) [Peptide A171] | retain or have improved binding to FBXW7
11 | G-d-p-P-G-mE-H (G[dD][dP]PG[NMeE]H) [Peptide A180] | retain or have improved binding to FBXW7
12 | G-d-p-p-G-mE-H (G[dD][dP][dP]G[NMeE]H) [Peptide A172] | retain or have improved binding to FBXW7
13 | G-d-p-p-G-mE-h (G[dD][dP][dP]G[NMeE][dH]) [Peptide A174] | retain or have improved binding to FBXW7
14 | G-d-p-p-a-mE-H (G[dD][dP][dP][dA][NMeE]H) [Peptide A173] | retain or have improved binding to FBXW7
15 | G-d-p-p-a-mE-h (G[dD][dP][dP][dA][NMeE][dH]) [Peptide A175] | retain or have improved binding to FBXW7
16 | G-e-P-P-G-mE (G[dE]PPG[NMeE]) [Peptide A25] | retain or have improved binding to FBXW7
17 | G-e-P-P-G-mE-H (G[dE]PPG[NMeE]H) [Peptide 147] | retain or have improved binding to FBXW7
18 | G-mD-P-P-G-mE (G[NMeD]PPG[NMeE]) [Peptide A45] | retain or have improved binding to FBXW7
19 | G-mD-P-P-Q-mE-H (G[NMeD]PPQ[NMeE]H) [Peptide A52] | retain or have improved binding to FBXW7
20 | G-mD-P-p-G-mE-H (G[NMeD]P[dP]G[NMeE]H) [Peptide A56] | retain or have improved binding to FBXW7
21 | G-mE-P-P-q-mE-H (G[NMeE]PP[dQ][NMeE]H) [Peptide A73] | retain or have improved binding to FBXW7
22 | G-mE-P-p-G-mE-H (G[NMeE]P[dP]G[NMeE]H) [Peptide A76] | retain or have improved binding to FBXW7
23 | GPEVPPTPPGSHSAFTSSFSFIRL (listed as Homo sapiens) | Detectable binding
24 | L-d-P-P-G-mE-H (L[dD]PPG[NMeE]H) [Peptide A98] | retain or have improved binding to FBXW7

Row | Substance | binding to FBXW7
25 | L-e-P-P-G-mE-H (L[dE]PPG[NMeE]H) [Peptide A137] | retain or have improved binding to FBXW7
26 | L-mD-P-P-G-mE-H (L[NMeD]PPG[NMeE]H) [Peptide A58] | retain or have improved binding to FBXW7
27 | P-A-P-P-G-mD-H (PAPPG[NMeD]H) [Peptide A102] | retain or have improved binding to FBXW7
28 | P-A-P-P-G-mE-H (PAPPG[NMeE]H) [Peptide A82] | retain or have improved binding to FBXW7
29 | P-E-P-P-G-d-H (PEPPG[dD]H) [Peptide 16] | retain or have improved binding to FBXW7
30 | P-E-P-P-G-mD (PEPPG[NMeD]) [Peptide A144] | retain or have improved binding to FBXW7
31 | P-E-P-P-G-mD-H (PEPPG[NMeD]H) [Peptide 64] | retain or have improved binding to FBXW7
32 | P-E-P-P-Q-mD-H (PEPPQ[NMeD]H) [Peptide A151] | retain or have improved binding to FBXW7
33 | P-P-G-mE-H (PPG[NMeE]H) [Peptide A189] | retain or have improved binding to FBXW7
34 | P-P-pT-P-P-G-pS-H (PP[pT]PPG[pS]H) | retain the ability to bind FBXW7
35 | P-d-P-P-G-mE (P[dD]PPG[NMeE]) [Peptide A85] | retain or have improved binding to FBXW7
36 | P-d-P-P-G-mE-H (P[dD]PPG[NMeE]H) [Peptide 82] | retain or have improved binding to FBXW7
37 | P-d-P-P-G-mE-K (P[dD]PPG[NMeE]K) [Peptide A194] | retain or have improved binding to FBXW7
38 | P-d-P-P-G-mE-k (P[dD]PPG[NMeE][dK]) [Peptide A195] | retain or have improved binding to FBXW7
39 | P-d-p-P-G-mE-H (P[dD][dP]PG[NMeE]H) [Peptide A97] | retain or have improved binding to FBXW7
40 | P-e-P-P-G-mD-H (P[dE]PPG[NMeD]H) [Peptide A101] | retain or have improved binding to FBXW7
41 | P-e-P-P-G-mE (P[dE]PPG[NMeE]) [Peptide A124] | retain or have improved binding to FBXW7
42 | P-e-P-P-G-mE-H (P[dE]PPG[NMeE]H) [Peptide 55] | retain or have improved binding to FBXW7
43 | P-e-P-P-Q-mE-H (P[dE]PPQ[NMeE]H) [Peptide A131] | retain or have improved binding to FBXW7
44 | P-e-P-P-q-mE-H (P[dE]PP[dQ][NMeE]H) [Peptide A132] | retain or have improved binding to FBXW7
45 | P-e-P-p-G-mE-H (P[dE]P[dP]G[NMeE]H) [Peptide A135] | retain or have improved binding to FBXW7
46 | P-e-p-P-G-mE-H (P[dE][dP]PG[NMeE]H) [Peptide A136] | retain or have improved binding to FBXW7
47 | P-pT-P-P-G-pS-H [A80] (P[pT]PPG[pS]H) [Peptide A80] | retain or have improved binding to FBXW7
48 | P-pT-P-P-G-pS-H [A100] (P[pT]PPG[pS]H) [Peptide A100] | retain or have improved binding to FBXW7

Row | Substance | binding to FBXW7
49 | P-pT-P-P-G-pS-H [A119] (P[pT]PPG[pS]H) [Peptide A119] | retain or have improved binding to FBXW7
50 | P-pT-P-P-G-pS-H [A139] (P[pT]PPG[pS]H) [Peptide A139] | retain or have improved binding to FBXW7
51 | P-pT-P-P-G-pS-H [A185] (P[pT]PPG[pS]H) [Peptide A185] | retain or have improved binding to FBXW7
52 | P-pT-P-P-G-pS-H [P-pT-P-P-G-pS-H] (P[pT]PPG[pS]H) | retain the ability to bind FBXW7
53 | P-pT-P-P-G-pS-H-S (P[pT]PPG[pS]HS) | retain the ability to bind FBXW7
54 | a-d-P-P-G-mE-h ([dA][dD]PPG[NMeE][dH]) [Peptide A164] | retain or have improved binding to FBXW7
55 | a-d-P-P-a-mE-H ([dA][dD]PP[dA][NMeE]H) [Peptide A166] | retain or have improved binding to FBXW7
56 | a-d-P-P-a-mE-h ([dA][dD]PP[dA][NMeE][dH]) [Peptide A165] | retain or have improved binding to FBXW7
57 | a-d-P-P-a-mE-k ([dA][dD]PP[dA][NMeE][dK]) [Peptide A197] | retain or have improved binding to FBXW7
58 | a-d-P-p-G-mE-H ([dA][dD]P[dP]G[NMeE]H) [Peptide A161] | retain or have improved binding to FBXW7
59 | a-d-P-p-a-mE-h ([dA][dD]P[dP][dA][NMeE][dH]) [Peptide A168] | retain or have improved binding to FBXW7
60 | a-d-p-P-G-mE-H ([dA][dD][dP]PG[NMeE]H) [Peptide A162] | retain or have improved binding to FBXW7
61 | a-d-p-p-G-mE-H ([dA][dD][dP][dP]G[NMeE]H) [Peptide A163] | retain or have improved binding to FBXW7
62 | a-d-p-p-a-mE-h ([dA][dD][dP][dP][dA][NMeE][dH]) [Peptide A169] | retain or have improved binding to FBXW7
63 | a-e-P-P-G-mE-H ([dA][dE]PPG[NMeE]H) [Peptide A130] | retain or have improved binding to FBXW7
64 | a-mD-P-P-G-mE-H ([dA][NMeD]PPG[NMeE]H) [Peptide A51] | retain or have improved binding to FBXW7
65 | a-mE-P-P-G-mE-H ([dA][NMeE]PPG[NMeE]H) [Peptide A71] | retain or have improved binding to FBXW7
66 | d-P-P-G-mE-H ([dD]PPG[NMeE]H) [Peptide A86] | retain or have improved binding to FBXW7
67 | e-P-P-G-mE-H ([dE]PPG[NMeE]H) [Peptide A26] | retain or have improved binding to FBXW7
68 | l-d-P-P-G-mE-H ([dL][dD]PPG[NMeE]H) [Peptide A99] | retain or have improved binding to FBXW7
69 | l-e-P-P-G-mE-H ([dL][dE]PPG[NMeE]H) [Peptide A138] | retain or have improved binding to FBXW7
70 | l-mE-P-P-G-mE-H ([dL][NMeE]PPG[NMeE]H) [Peptide A79] | retain or have improved binding to FBXW7
71 | p-d-P-P-G-mE-H ([dP][dD]PPG[NMeE]H) [Peptide A181] | retain or have improved binding to FBXW7
72 | p-d-P-P-G-mE-h ([dP][dD]PPG[NMeE][dH]) [Peptide A184] | retain or have improved binding to FBXW7
